B1: IFT52/70 complex (SNAP-IFT52/SNAP-IFT70) (complex)
chain 1: MEKELRSTILFNAYKKEVFTTNTGYKSLQKRLRSNWKIQSLKDEITSEKLIGVKLWITAGPREKFTAAEFEVLKKYLDSGGDILVMLGEGGESRFDTNINFLLEEYGIMVNNDAVVRNVYYKYFHPKEALVSDGVLNREISRAAGKAVPGVIDEENSGNNAQALTFVYPFGATLSVMKPAVAVLSTGSVCFPLNRPILAFYHSKNQGFGKLAVLGSCHMFSDQYLDKEENSKIMDVVFQWLTTGDIHLNQIDAEDPEISDYTMVPDTATLSEQLRVCLQEGDENPRDFTTLFDLSIYQLDTTCLPKVIKAHEELNVKHEPLQLVQPQFEMPLPALQPAVFPPSFRELPPPPLELFDLDETFSSEKARLAQITNKCTDEDLEFYVRKCGDILGVTSKLPKDQQDAKHILEHIFFQVVEFKKLNQEAH
chain 2: MAGLSGAQIPDGEFTAVVYRLIRNARYAEAVQLLGGELQRSPRSRAGLSLLGYCYYRLQEFALAAECYEQLGQLHPELEQYRLYQAQALYKACLYAEATRVAFLLLDNPAYHSRVLRLQAAIKYSEGDLPGSRSLVEQLPSREGGEESGGENETDGQINLGCLLYKEGQYEAACSKFFAALQASGYQPDLSYNLALAYYSSRQYASALKHIAEIIERGIRQHPELGVGMTTEGIDVRSVGNTLVLHQTALVEAFNLKAAIEYQLRNYEAAQEALTDMPPRAEEELDPVTLHNQALMNMDARPTEGFEKLQFLLQQNPFPPETFGNLLLLYCKYEYFDLAADVLAENAHLIYKFLTPYLYDFLDAVITCQTAPEEAFIKLDGLAGMLTEVLRKLTIQVQEARHNRDDEAIKKAVNEYDETMEKYIPVLMAQAKIYWNLENYPMVEKIFRKSVEFCNDHDVWKLNVAHVLFMQENKYKEAIGFYEPIVKKHYDNILNVSAIVLANLCVSYIMTSQNEEAEELMRKIEKEEEQLSYDDPDKKMYHLCIVNLVIGTLYCAKGNYDFGISRVIKSLEPYNKKLGTDTWYYAKRCFLSLLENMSKHTIMLRDSVIQECVQFLEHCELHGRNIPAVIEQPLEEERMHVGKNTVTYESRQLKALIYEIIGWNI
modifications: SNAP-Surface Alexa Fluor 647 on the SNAP tag | SNAP-Surface Alexa Fluor 647 on the SNAP tag
B2: GFP-HSET (full-length N-terminal hexa-histidine-tagged GFP-HSET) (natural protein, human, UniProt Q9BW19 1-673, looked up)
chain: MDPQRSPLLEVKGNIELKRPLIKAPSQLPLSGSRLKRRPDQMEDGLEPEKKRTRGLGATTKITTSHPRVPSLTTVPQTQGQTTAQKVSKKTGPRCSTAIATGLKNQKPVPAVPVQKSGTSGVPPMAGGKKPSKRPAWDLKGQLCDLNAELKRCRERTQTLDQENQQLQDQLRDAQQQVKALGTERTTLEGHLAKVQAQAEQGQQELKNLRACVLELEERLSTQEGLVQELQKKQVELQEERRGLMSQLEEKERRLQTSEAALSSSQAEVASLRQETVAQAALLTEREERLHGLEMERRRLHNQLQELKGNIRVFCRVRPVLPGEPTPPPGLLLFPSGPGGPSDPPTRLSLSRSDERRGTLSGAPAPPTRHDFSFDRVFPPGSGQDEVFEEIAMLVQSALDGYPVCIFAYGQTGSGKTFTMEGGPGGDPQLEGLIPRALRHLFSVAQELSGQGWTYSFVASYVEIYNETVRDLLATGTRKGQGGECEIRRAGPGSEELTVTNARYVPVSCEKEVDALLHLARQNRAVARTAQNERSSRSHSVFQLQISGEHSSRGLQCGAPLSLVDLAGSERLDPGLALGPGERERLRETQAINSSLSTLGLVIMALSNKESHVPYRNSKLTYLLQNSLGGSAKMLMFVNISPLEENVSESLNSLRFASKVNQCVIGTAQANRK
notes: HSET (KIFC1), human mitotic kinesin-14, full length; Dimer by mass photometry (measured 232 ± 34 kDa, expected 210 kDa for the GFP-HSET dimer); also called KIFC1; kinesin-14; source: Sf9 insect cells, baculovirus, purified (Ni-NTA); not shown: GFP, N-terminal, kept

Key:
[1] = molecular target: B2; experiment: mass photometry; in solution; pre-incubated 30 min at 30 °C (1.2 µM GFP-HSET, 2.4 µM IFT52/70) in 20 mM Na-Hepes pH 7.2, 150 mM NaCl, 2 mM MgCl2, 10% glycerol, 5 mM β-mercaptoethanol; measured at 2.5 nM GFP-HSET and 5 nM IFT52/70, alone or mixed, 25 °C; conditions: both partners purified
[2] = molecular target: B2; experiment: cell-based or functional assay
[3] = molecular target: the molecule itself; experiment: mass photometry; in solution; pre-incubated 30 min at 30 °C (1.2 µM GFP-HSET, 2.4 µM IFT52/70) in 20 mM Na-Hepes pH 7.2, 150 mM NaCl, 2 mM MgCl2, 10% glycerol, 5 mM β-mercaptoethanol; measured at 2.5 nM GFP-HSET and 5 nM IFT52/70, alone or mixed, 25 °C

Binder: B1
- stoichiometry N [1]: 2 IFT52/70 dimers per GFP-HSET dimer
- GFP-HSET (5 nM) fluorescence at microtubule minus ends relative to the lattice, with IFT52/70 (10 nM) (1.38 versus 2.34) [2]: 1.7 fold

Binder: B2
- stoichiometry N [3]: 2
